Reference: the nanobody polyreactivity screen of Harvey et al. (2022)

Test: yeast display, Sf9 membrane polyspecificity reagent, FACS + sequencing; frameworks hold sequencing errors
Procedure, shortened: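 Sorting gates, low and high (top ~1%), were placed on anti-HA fluorescence to track expression and on streptavidin fluorescence to track reagent binding. A clone's polyreactivity label is taken from the gate it came out of. The reagent was 10% biotinylated, detergent-solubilized Sf9 membrane, applied for 1 hour at 4 °C to galactose-induced yeast display cells.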

For “QVQLVESGGGLVQAGGSLRLSCADSGNTFKGYAMGWYRQAPGKERELVAAISWSGSSTYYADSVKGRFTISRDNAKNTVYLQMNSLKPEDTAVYYCAVTYRRFYYWGQGTQVTVSS”, which “polyreactivity (PSR sort gate)” value is on record?
The value was “high polyreactivity”.

For “QVQLVESGGGLVQAGGSLRLSCADSGRIFDVNDKRSYRQAPGKERELVAAITYSGTDTYYADSVKGRFTISRDNAKNTVYLQMNSLKPEDTAVYYCAAEFTGWEYIGRDYWGQGTQVTVSS”, which “polyreactivity (PSR sort gate)” value is on record?
The value was “low polyreactivity”.

For “QVQLVESGGGLVQAGGSLRLSCADSGRIFGRYAMGWYRQAPGQERELVAGISARGGSTYYADSVKGRFTISRDNAKNTVYLQMNRLKPEDTAVYYCAAAGYRGGGYWGQGTQVTVSS”, which “polyreactivity (PSR sort gate)” value is on record?
The value was “high polyreactivity”.

Which “polyreactivity (PSR sort gate)” value does the source give for “QVQLVESGGGLVQAGGSLRLSCADSGRIFHTYAMGWYRHAPGKERELVAAISKGGSGTYYADSVKGRFTISRDNAKNTVYLQRNSLKPEDTAVYYCAADLTYHYPRYITYEYWGQRTQVTVSS” here?
The value was “low polyreactivity”.

Which “polyreactivity (PSR sort gate)” value does the source give for “QVQLVESGGGLVQAGGSLRLSCADSGRIIDTYAMVWYRQAPGKERELVASISRSDTSTSNADSVKGRFTISRDNAKNTVYLQMNSLKPEDTAVYYCNKDGVPVNNTKRYDYWGQGTQVTVSS” here?
The value was “low polyreactivity”.

Which “polyreactivity (PSR sort gate)” value does the source give for “QVQLVESGGGLVQAGGSLRLSCADSGRLFYPYAMGWYTQAPGTERELVAAIRRSGVDTYYADSVKGRFTISRDNAKNTVYLQMNSLKPEDTAVYYCAADPYSFFPHYDSWGQGTQVTVSS” here?
Its value is “low polyreactivity”.

Which “polyreactivity (PSR sort gate)” value does the source give for “QVQLVESGGGLVQAGGSLRLSCADSGRTFQYYAMGWSRQSPAKERELVAAITSGGSTYYADSVKGRFTISRDNAKNTVYLQMNSLKTEDTAVYYCAADFLYYSSGGKMDYWGQGTQVTVSS” here?
The value was “low polyreactivity”.

For “QVQLVESGGGLVQAGGSLRLSCADSGRTFRIYAMGLYIQAPGKERELVAAITRRGGSTYYADSVKGRFTISRDNAKNTVYLQMNSLKPEDTAVYYCAADLRYGYLYPYDSWGQGTQVTVSS”, which “polyreactivity (PSR sort gate)” value is on record?
The value was “high polyreactivity”.

Which “polyreactivity (PSR sort gate)” value does the source give for “QVQLVESGGGLVQAGGSLRLSCADSGRTFSYNTMGWYRQATGKERELVARITWGGGSTYYADSVKGRFTISRDNAKNTVYLQMNSLKPEDTAVYYCNADLRELSPWYWYSGEMDYWGQGTQVTVSS” here?
Its value is “low polyreactivity”.

For “QVQLVESGGGLVQAGGSLRLSCADSGRTFTRYAMGWYRQAPGKERELVAAISYIGGGTYYADSVKGRFTISRDNAKNTVYLQMNSLKPEDTAVYYCAGYSRQAEYEYWGQGTQVTVSS”, which “polyreactivity (PSR sort gate)” value is on record?
The value was “high polyreactivity”.

For “QVQLVESGGGLVQAGGSLRLSCADSGRTFVGNAMGWSRQAPGKERELVAAITSRTGSTYYADSVKGRFTISRDNAKNTVYLQMTSLTPEDTAVYYCATPYYQNVYSRKAYTYWGQGTQVTVSS”, which “polyreactivity (PSR sort gate)” value is on record?
Its value is “high polyreactivity”.

With “QVQLVESGGGLVQAGGSLRLSCADSGRTSRVYAMGWYRQEPAKERELVAAITWRGGNTYYADSVKGRFTISRDNAKNTVYLQMNSLKPEDTAVYYCAADPLSYGSWHGDSWGQGTQVTLSS” as the sequence, how does the “polyreactivity (PSR sort gate)” value read?
Its value is “high polyreactivity”.

For “QVQLVESGGGLVQAGGSLRLSCADSGSIFAYYARGWYRQAPGKERELVAAISQSGGSTYYAYSVKGRFTISRDTAKNTVYLQMNSLKPEDTAVYYCAARFRYGYTGYRYDYWGQGTQVTVSS”, which “polyreactivity (PSR sort gate)” value is on record?
The value was “high polyreactivity”.

Which “polyreactivity (PSR sort gate)” value does the source give for “QVQLVESGGGLVQAGGSLRLSCADSGSIFSYYAMGWYRQEPGKARELVASISRTGVSTHYADSVKGRFTISRDNAKNTVYLQMNSLKPEDNAVYYCNAKYLTWSYRYYYWGQGTQVTVSS” here?
Its value is “high polyreactivity”.

For “QVQLVESGGGLVQAGGSLRLSCADSGSIFVWNDMGWYRQAPGKEREFVAAITSRDGSTYYADSVKGRFTISRDTAKNTVYLQMTSLKPEDTAVYYCAARLRVTGFYSRTRYYWGQGTQVTVAS”, which “polyreactivity (PSR sort gate)” value is on record?
The value was “low polyreactivity”.

Which “polyreactivity (PSR sort gate)” value does the source give for “QVQLVESGGGLVQAGGSLRLSCADSGSTFDYPMGWYRQAPGKERELVASITFSTGSTYYADSVKGRFTISRDNAKNTVYLQMNSLKPEDTAVYYCATGVDTYSLTVEHDSWVQGTQVTVSS” here?
Its value is “low polyreactivity”.

With “QVQLVESGGGLVQAGGSLRLSCADSGSTFNSYAMGWYRQAPGKERELVAAITHRGSTYYADSVKGRFTISLDNAKNTVYLQMNSLKPEDTAVDYCNVRRIGNGRRVDYWGQGTQVTVSS” as the sequence, how does the “polyreactivity (PSR sort gate)” value read?
The value was “high polyreactivity”.

Which “polyreactivity (PSR sort gate)” value does the source give for “QVQLVESGGGLVQAGGSLRLSCADSGSTFRRYAMGWYRQAPGKERELVAAISWSGGSTYYADSVKGRFTISRDNAKNTVYLQMKSLKPEDTAVYYCAARGVTSYWQDYDYWGQGTQVTVSS” here?
The value was “low polyreactivity”.

With “QVQLVESGGGLVQAGGSLRLSCADSGSTFRRYTMGWYRQAPGKERELVASITRSGGSKYYADSVKGRFTISRDNAKNTVYLQMNSLKPEDTAVYFCNKLSGYGWRSYGYWGQGTQVTVSS” as the sequence, how does the “polyreactivity (PSR sort gate)” value read?
Its value is “high polyreactivity”.

For “QVQLVESGGGLVQAGGSLRLSCADSGSTSYDYAMGWYRQAPGKERELVAAISGSSSTTYYADSVKGRFTISRDNAKNTVYLQMNSLKPEDTAVYYCNAVTTTGSGYGYWGQGTQVTVSS”, which “polyreactivity (PSR sort gate)” value is on record?
Its value is “low polyreactivity”.

For “QVQLVESGGGLVQAGGSLRLSCADSGSTSYRYAMGRYRQSPGKERELVAVITSGSSTYYADSVKGRFTISRDNAKNTDYLQINSLKPEDTAVYYCAVGRTYRRYSAASYNYWGQGTQVTVSS”, which “polyreactivity (PSR sort gate)” value is on record?
The value was “high polyreactivity”.

With “QVQLVESGGGLVQAGGSLRLSCAGSGFTFGYYAMGWSRPAPGKERELVAAMSWNGGRTYYADSVKGRFTISRDNAKNTVYLQLNSLKPEDTAVYSCAADYRFYSPTKYSYDDWGQGTQVTVSS” as the sequence, how does the “polyreactivity (PSR sort gate)” value read?
The value was “high polyreactivity”.

For “QVQLVESGGGLVQAGGSLRLSCAGSGFTFIIYAMGWYREAPGKERELVAAITRSGGSTYYADSVKGRFTISRDNAKNTVYLQMNSLKPEDTAVYYCAAALSVRFYFWGQGTQVTVSS”, which “polyreactivity (PSR sort gate)” value is on record?
The value was “high polyreactivity”.

For “QVQLVESGGGLVQAGGSLRLSCAGSGFTFSSYTIGWYRQAPGKEREFVASISSGGSTNYADSVKGRFTISRDNAKNTVYLQMNSLKPEDTAVYYCAAGTTGITFFDVGSGYDYWGQGTQVTVSS”, which “polyreactivity (PSR sort gate)” value is on record?
The value was “low polyreactivity”.

For “QVQLVESGGGLVQAGGSLRLSCAGSGFTLGSNAMGWYRQAPGKERELVAVISGSGGSTYYADSVKGRFTISRDNAKNTVYLQMNSLKPEDTAVYYCAAQYSAGQYYGYGYWGQGTQVTVSS”, which “polyreactivity (PSR sort gate)” value is on record?
Its value is “high polyreactivity”.

With “QVQLVESGGGLVQAGGSLRLSCAGSGHIFRQYAMGWYRQAPGKERELVAAITSGGSTYYADSVKGRFTISRDNAKNTVYLQMNSLKPEDTAVYYCATRPGGDRPIGYDYWGQGTQVTVSS” as the sequence, how does the “polyreactivity (PSR sort gate)” value read?
Its value is “low polyreactivity”.

Which “polyreactivity (PSR sort gate)” value does the source give for “QVQLVESGGGLVQAGGSLRLSCAGSGRIFDLYTMGWYRQAPGKERELVAAIRWSDGSTYYADSVKGRFTISRDNAKNTVYLQINSLKPEDTAVYYCAADTRTSYYNDDYDYWGQGTQVTVSS” here?
Its value is “low polyreactivity”.

With “QVQLVESGGGLVQAGGSLRLSCAGSGRILVQNDMGWYRQAPGNESELVAAIRSDGSTSYADSVKGRFTISRDNAKYTVYLQMNSLKPEDTAVYYCAARIDWTGGYYDYWGQGTQVTVSS” as the sequence, how does the “polyreactivity (PSR sort gate)” value read?
Its value is “low polyreactivity”.

With “QVQLVESGGGLVQAGGSLRLSCAGSGRTFVYYAMGWYRQAPGREREFVAAISRSGGRTSYADSVKGRFTISRDNAKNTVYLHMNSLKPEDTAVNYCAAEKRTQPTSREYYWGQGTQVTVSS” as the sequence, how does the “polyreactivity (PSR sort gate)” value read?
Its value is “high polyreactivity”.

With “QVQLVESGGGLVQAGGSLRLSCAGSGRTVANNAMGWYRQAPGKERELVAAISNGDSPYADSVKGRFTISRDNAKNTVYLQLNSLKPEDTAVYYCATRTQEDYTGDYWGQGTQVTVSS” as the sequence, how does the “polyreactivity (PSR sort gate)” value read?
Its value is “low polyreactivity”.

For “QVQLVESGGGLVQAGGSLRLSCAGSGSIFGEYVMGCYRQATVKERELVADISWRDGDTYYADSVKGRFTISRDNAKNTVYLQMNSLKPEDTAVYYFAADVIVPESYGYWPLSYYYLGQGTQVTVSS”, which “polyreactivity (PSR sort gate)” value is on record?
Its value is “low polyreactivity”.

For “QVQLVESGGGLVQAGGSLRLSCAGSGSIFSIYAMGWYRQAPGKERELVAAIRYDGGSTYYADSVKGRFTISRDNAKNTVYLQMNSLKPEDTAVYYCAAKVYFRRRGLHPYDYWGQGTQVNVSS”, which “polyreactivity (PSR sort gate)” value is on record?
The value was “low polyreactivity”.

Which “polyreactivity (PSR sort gate)” value does the source give for “QVQLVESGGGLVQAGGSLRLSCAGSGSSFSNYAMRGYRQATGKERELVAVITTGASTYYADSLKGRFTISRDNAKNTVYLQLNSLKPEDSAVYACAKGKISRETPGIYWSYSYGYWGQGTQVTVSS” here?
Its value is “high polyreactivity”.

Which “polyreactivity (PSR sort gate)” value does the source give for “QVQLVESGGGLVQAGGSLRLSCAGSGSTFGRYAMGWYRQAPGKERELVAAITSDTGNTNYADSVKGRFTISRDNAKNTVYLQMNSLKPEDTAVYYCAAATFWVLWGHVIGNYDSWGQGTQVTVSS” here?
Its value is “low polyreactivity”.

Which “polyreactivity (PSR sort gate)” value does the source give for “QVQLVESGGGLVQAGGSLRLSCAGSGSTFRSNAMGWYRQAPGKERELVAAISQRGGSTYYADSVKGRFTISRDNAKNTVYLQMNSLKPEDTAVYYCAARLYRGWRPFYYWGQGTQVSVSS” here?
Its value is “high polyreactivity”.

Which “polyreactivity (PSR sort gate)” value does the source give for “QVQLVESGGGLVQAGGSLRLSCAGYGSIFWWYPMVWYRQAPGKERELVASISWSGTSTYYADSVKGRFTISRDNAKNTVYLQMNSLKPEDTAVYYCNADVYWPGTPYTHDYWGQGTQVTVSS” here?
The value was “low polyreactivity”.

Which “polyreactivity (PSR sort gate)” value does the source give for “QVQLVESGGGLVQAGGSLRLSCAPSGFIFRLNGMGWYIQAPGKERELVATIDSGSSTNYADSVKGRFTISRDNAKNTVYLQMNSLKPEDTAVYYCAAVVISYYTHGDYDYWGQGTQVTVSS” here?
Its value is “low polyreactivity”.

For “QVQLVESGGGLVQAGGSLRLSCAPSGFIYSKYVIGWNRPAPGKERELVAAITRSGSSTYYADSVKGRFTISRDNAKNTDYLQMNSLKPEDTAVYYCAADGGYYDDDYWGQGTQVTVSS”, which “polyreactivity (PSR sort gate)” value is on record?
Its value is “high polyreactivity”.

Which “polyreactivity (PSR sort gate)” value does the source give for “QVQLVESGGGLVQAGGSLRLSCAPSGGTFYANDMGWYRQAPGKERELVATISKSGGSTYYAESVKRPFTISRDNAKNTVYCQMNSLKPEVTAVYYCAARTTYLYGMYYWGQGTQVTVSS” here?
The value was “low polyreactivity”.

Which “polyreactivity (PSR sort gate)” value does the source give for “QVQLVESGGGLVQAGGSLRLSCAPSGIIFYYYAMGWYRQAPGKERELVAAITGTGSRTYYADSVKGRFTISRDNAKNTVYLQMNSLKPEDTAVYYCNARSFATGSKVPARGYWGQGTQVTVSS” here?
Its value is “high polyreactivity”.

Which “polyreactivity (PSR sort gate)” value does the source give for “QVQLVESGGGLVQAGGSLRLSCAPSGITFLHYAMGWYRQAPGKERELVAAITRGGITYYADSVKGRFTISRDNAKNSVYLLMNSLKPEDTAVYYCNALGFGSNYDYWGQGTQVTVSS” here?
The value was “high polyreactivity”.

Which “polyreactivity (PSR sort gate)” value does the source give for “QVQLVESGGGLVQAGGSLRLSCAPSGITFVKNVMGWYRQAPGKEREFVAAISTIGARTYYADSVKGRFTISRDNAKNTVYLQMNSLIPEDTAVYYCNAYKSGYGQEYDYWGQGTQVTVSS” here?
The value was “high polyreactivity”.

For “QVQLVESGGGLVQAGGSLRLSCAPSGLTFSNYAMGWYRQAPCKERELVAGISSSGGTTYYADSVKGRFTISRDNAKNTVFLQMNSLKPEDTAVYYCATRRHYGSFWYDYWGQGTQVTVSS”, which “polyreactivity (PSR sort gate)” value is on record?
Its value is “high polyreactivity”.
